In US7012060B1, “TNF receptor and steroid hormone in a combined therapy” (priority 1995, dated 2006):
Marks after values point to notes of the source that are not given here.

Assays:
septic shock = conditions: urinary and recombinant TBP-1 (CHO and E. Coli); cited from earlier work
[1] = tested on: septic shock induced by LPS + D-Galactosamine, in mice; test: LPS+D-Galactosamine-induced septic shock model; assay type: in vivo, SPF female BALB/c inbred mice
Protocol: The experiments were carried out in vivo on mice. The septic shock was induced by an i.p. administration of a mixture of LPS (0.1 μg/mouse) and D-Galactosamine (18 mg/mouse).
The treatment schedule for r-hTBP-1 based on repeated administrations (the total dose was divided into 4 administrations given at time 0 and […] and 24 hours after), was adopted. CHO r-hTBP-1 was tested, alone or in combination with DHEA, at dose levels of 62.5 and 125 μg/mouse (total dose).
DHEA was tested both in a single administration injected i.p. one hour before and contemporaneously to the septic shock-inducing agent at doses encompassed between 100 and 2.000 μg/mouse and in repeated treatment with the total dose (250 μg/mouse) divided into 4 injections given within 24 hours.
The above treatment schedules of DHEA (doses from 250 to 1,500 μl g/mouse) were followed also in combination with r-hTBP-1 which was tested at the total dose varying from 62.5 to 125 μg/mouse (divided into 4 administrations).
SPF female BALB/c inbred mice, 6–8 weeks (about 18–20 g b.w.), from Charles River were used throughout the whole study after an acclimatisation period of at least 7 days.
Unless otherwise specified, in all the experiments the mice were randomly divided into groups of 10 animals each.
Both substances were dissolved in saline. The mixture of LPS (0.1 μg/mouse) and D-Galactosamine (18 mg/mouse) was prepared by mixing equal volumes of these substances. The mixture was subsequently injected to animals by the i.p. route. This dose was selected under precious experiments as that inducing around 80% mortality calculated as the number of dead vs. total number of mice for each croup. The lethality was monitored after 24, 48, 72 and 96 hours and at day 7 post-treatment.
The drug was diluted in saline and injected by repeated administrations, i.e. i.v. immediately before the inoculum of LPS plus D-Galactosamine and s.c. 3, 6 and 24 hours later.
The effects of DHEA, alone or in combination with r-hTBP-1, were assayed after single i.p. administrations at different times in respect to LPS+D-Galactosamine injection; in particular, it was administered 1 hour before and contemporaneously to the septic shock-inducing agent.
A repeated treatment schedule was also investigated in which DHEA was administered at time 0 (septic shock induction) and 3, 6 and 24 hours later. DHEA was initially vehicled in a mixture of 2.5% alcohol and 10% rabbit serum in saline. To improve the solubility and standardise the preparation, the steroid was successively dispersed in a mixture of 2.5% alcohol and 10% phospholipid emulsion in saline.
The primary end point was the survival rate at 48 hours after induction of septic shock. The comparison of the effects of each treatment group vs. controls and among treatment groups was effected by Fisher's exact test, one-tailed. The same comparison was also performed at the other time points. The results in each treatment group were expressed as percent survival.
In all the experiments, percent survival values were calculated using the survival Tables for the follow up studies (Armitage P. Cap. XIV. Tavole di sopravvivenza in Statistica Medica, Feltrinelli, Milano). The χ^2-test was applied to each observation time by comparing the DHEA+r-hTBP-1 groups to the other groups.

Molecule	in vivo protective effects (septic shock)	% cumulative survival ([1]; Table 2, r-hTBP-1 125 μg/mouse, time 0 (i.v.) and 3, 6, 24 hours (s.c.), 24 hrs)	% cumulative survival ([1]; Table 2, r-hTBP-1 125 μg/mouse, time 0 (i.v.) and 3, 6, 24 hours (s.c.), 48 hrs)	% cumulative survival ([1]; Table 2, r-hTBP-1 125 μg/mouse, time 0 (i.v.) and 3, 6, 24 hours (s.c.), 72 hrs)	% cumulative survival ([1]; Table 2, r-hTBP-1 125 μg/mouse, time 0 (i.v.) and 3, 6, 24 hours (s.c.), 96 hrs)	% cumulative survival ([1]; Table 4, r-hTBP-1 62.5 μg/mouse, time 0 (i.v.) and 3, 6, 24 hours (s.c.), 24 hr)	% cumulative survival ([1]; Table 4, r-hTBP-1 62.5 μg/mouse, time 0 (i.v.) and 3, 6, 24 hours (s.c.), 48 hr)	% cumulative survival ([1]; Table 4, r-hTBP-1 62.5 μg/mouse, time 0 (i.v.) and 3, 6, 24 hours (s.c.), 72 hr)	% cumulative survival ([1]; Table 4, r-hTBP-1 62.5 μg/mouse, time 0 (i.v.) and 3, 6, 24 hours (s.c.), 96 hr)	% cumulative survival ([1]; Table 5 group C, r-hTBP-1 62.5 μg, time 0 i.v. and 3, 6, 24 hours s.c., 24 hrs, 1st exp.)	% cumulative survival ([1]; Table 5 group C, r-hTBP-1 62.5 μg, time 0 i.v. and 3, 6, 24 hours s.c., 24 hrs, 2nd exp.)	% cumulative survival ([1]; Table 5 group C, r-hTBP-1 62.5 μg, time 0 i.v. and 3, 6, 24 hours s.c., 48 hrs, 1st exp.)	% cumulative survival ([1]; Table 5 group C, r-hTBP-1 62.5 μg, time 0 i.v. and 3, 6, 24 hours s.c., 48 hrs, 2nd exp.)	% cumulative survival ([1]; Table 5 group C, r-hTBP-1 62.5 μg, time 0 i.v. and 3, 6, 24 hours s.c., 72 hrs, 1st exp.)	% cumulative survival ([1]; Table 5 group C, r-hTBP-1 62.5 μg, time 0 i.v. and 3, 6, 24 hours s.c., 72 hrs, 2nd exp.)	% cumulative survival ([1]; Table 5 group C, r-hTBP-1 62.5 μg, time 0 i.v. and 3, 6, 24 hours s.c., 96 hrs, 1st exp.)	% cumulative survival ([1]; Table 5 group C, r-hTBP-1 62.5 μg, time 0 i.v. and 3, 6, 24 hours s.c., 96 hrs, 2nd exp.)	protection (survival) ([1]; r-hTBP-1 62.5 μg/mouse alone)	survival ([1]; r-hTBP-1 125 μg/mouse alone (suboptimal dose))	survival ([1]; text (conclusions), r-hTBP-1 125 μg/mouse total dose alone)
TBP-1: urinary as well as recombinant TBP-1 (derived from both CHO and E. Coli cells), literature (protein, UniProt P19438 30-211, looked up, extracellular domain, urinary as well as recombinant TBP-1 (derived from both CHO and E. Coli cells), literature) extracellular domain: LVPHLGDREKRDSVCPQGKYIHPQNNSICCTKCHKGTYLYNDCPGPGQDTDCRECESGSFTASENHLRHCLSCSKCRKEMGQVEISSCTVDRDTVCGCRKNQYRHYWSENLFQCFNCSLCLNGTVHLSCQEKQNTVCTCHAGFFLRENECVSCSNCKKSLECTKLCLPQIENVKGTEDSGTT	protective effects	–	–	–	–	–	–	–	–	–	–	–	–	–	–	–	–	–	–	–
r-hTBP-1: CHO recombinant human TBP-1, the extracellular soluble domain of TNF-R1 (TNF Binding Protein-1) (protein, UniProt P19438 30-211, looked up, extracellular domain) extracellular domain: LVPHLGDREKRDSVCPQGKYIHPQNNSICCTKCHKGTYLYNDCPGPGQDTDCRECESGSFTASENHLRHCLSCSKCRKEMGQVEISSCTVDRDTVCGCRKNQYRHYWSENLFQCFNCSLCLNGTVHLSCQEKQNTVCTCHAGFFLRENECVSCSNCKKSLECTKLCLPQIENVKGTEDSGTT	–	50%	50%	50%	50%	20%	10%	0%	0%	90^a %	70^a %	80^a %	40%	70^a %	30%	70^a %	30%	20%	about 50%	50%
